Data on five molecules can be found in paper PMC11112747, “Cyanovirin-N Binding to N-Acetyl-D-glucosamine Requires Carbohydrate-Binding Sites on Two Different Protomers” (Biochemistry, 2024).

In test [1] the target is T1, CVN2 (CVN2L0) (Nostoc ellipsosporum, UniProt P81180).
T1 construct: tandem-linked domain-swapped dimer of two CV-N, zero-linker length; His-tag
T1 sequence (P81180 1-101): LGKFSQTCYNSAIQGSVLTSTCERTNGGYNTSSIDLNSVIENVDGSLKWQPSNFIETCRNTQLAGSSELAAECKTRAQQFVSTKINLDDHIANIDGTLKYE
Nature of the test: Isothermal titration calorimetry, CVN2 titrated into ManNAc in the cell, PBS pH 7.4, 298 K, one-set of sites model. Format: binding. Particulars: SEM, n = 3; read-out: affinity Kd. The protocol:
Calorimetric titrations were carried out using an ITC200 device (Malvern Panalytical, Malvern, UK). The concentration of mutant E41T dimer and monomeric variants CVN-E41T or CVN-E41A was 200 μM titrant of these proteins to the ligands ManNAc and GlcNAc in the cell. […] The protein concentrations were 44 μM (304 μM) CVN2L0 and 465 μM CVN-E41T in the ManNAc experiments, respectively, and determined to be between 200 and 300 μM for the GlcNAc experiment. Aliquots (2 μL) of CV-N titrant were injected at 2 min intervals into the sugar solution in the calorimetry cell with a total of 19 injections from a stirring syringe (operated at 750 rpm). […] The values for enthalpy, binding affinity, and stoichiometry from the binding curve and the free energy and entropy of interaction were calculated using Microcal Origin v7.0 (OriginLab, Northampton, Massachusetts, USA) according to the standard expressions: ΔG = −RTln Ka, and ΔG = ΔH–TΔS. […]
Specific carbohydrate–protein interactions with polar and charged residues were delineated from the solution structure with Manα1 → 2Man disaccharide bound to domain B.[5] […] A low-affinity binding site was exposed and calculated to bind ManNAc with micromolar concentrations of CV-N and CVN2 (Figure S1A and Figure 1B). […]
In general terms: ITC needs no label: the signal is the heat of the interaction.

Test [2] addresses T2, mutant E41T dimer (Nostoc ellipsosporum, UniProt P81180, E41T).
T2 construct: His-tag
Nature of the test: Isothermal titration calorimetry, mutant E41T dimer with ManNAc in the cell, PBS pH 7.4, 298 K, calculated with N = 2. The test is classed as binding. The protocol: (§1) Calorimetric titrations were carried out using an ITC200 device (Malvern Panalytical, Malvern, UK). The concentration of mutant E41T dimer and monomeric variants CVN-E41T or CVN-E41A was 200 μM titrant of these proteins to the ligands ManNAc and GlcNAc in the cell. […] The protein concentrations were 44 μM (304 μM) CVN2L0 and 465 μM CVN-E41T in the ManNAc experiments, respectively, and determined to be between 200 and 300 μM for the GlcNAc experiment. Aliquots (2 μL) of CV-N titrant were injected at 2 min intervals into the sugar solution in the calorimetry cell with a total of 19 injections from a stirring syringe (operated at 750 rpm). […] The values for enthalpy, binding affinity, and stoichiometry from the binding curve and the free energy and entropy of interaction were calculated using Microcal Origin v7.0 (OriginLab, Northampton, Massachusetts, USA) according to the standard expressions: ΔG = −RTln Ka, and ΔG = ΔH–TΔS.
In comparison, CV-N binding to GlcNAc, the N-linked glycan unit in N-glycosylation sites that is also part of bacterial cell walls with beta-linked bonds to N-acetylmuramic acid (MurNAc), was rather unspecific and measured in the micromolar range (Figure S1B).
Figure S1. […] Calculated energies of interaction, affinities, and stoichiometry for CV-N binding and […]
model. (F) Mutant E41T dimer binding to ManNAc is calculated based on N=2, ligand in the cell analysis. […]

In test [3] the target is T3, CVN-E41T (Nostoc ellipsosporum, UniProt P81180, E41T).
T3 construct: His-tag
Nature of the test: Isothermal titration calorimetry, monomeric CVN-E41T titrated into 6 uM GlcNAc in the cell, PBS pH 7.4, 298 K, one-set of sites model, single biological replicates. Particulars: n = 1; read-out: Affinity Kd. The test is classed as binding. The protocol: as §1
(§2) The lectin interaction with peptide residues was enhanced or reduced by replacing a single, or two, disulfide bond(s) by ionic residue pairs (Glu and Arg) at positions E58 and R73 in CVN2, resulting in binding of dimannosylated peptide (DM) by double-mutant C58E-C73R (CVN2L0-V5) (Figure S2C) with high polar interactions.[12] […] The binding stoichiometry was calculated from a simplex fit. […]

Test [4] deals with T1, CVN2 (CVN2L0). Nature of the test: Isothermal titration calorimetry, protein titrated into GlcNAc in the cell, PBS pH 7.4, 298 K, one-set of sites model. The conditions noted are these: SEM, n = 3; read-out: affinity Kd. Format: binding. The protocol:
(§3) Calorimetric titrations were carried out using an ITC200 device (Malvern Panalytical, Malvern, UK). The concentration of mutant E41T dimer and monomeric variants CVN-E41T or CVN-E41A was 200 μM titrant of these proteins to the ligands ManNAc and GlcNAc in the cell. […] The protein concentrations were 44 μM (304 μM) CVN2L0 and 465 μM CVN-E41T in the ManNAc experiments, respectively, and determined to be between 200 and 300 μM for the GlcNAc experiment. Aliquots (2 μL) of CV-N titrant were injected at 2 min intervals into the sugar solution in the calorimetry cell with a total of 19 injections from a stirring syringe (operated at 750 rpm). Controls were prepared with identical amounts of titrant injected into PBS buffer at pH 7.4 at 298 K, and control values were subtracted from the results of the actual experiments. The values for enthalpy, binding affinity, and stoichiometry from the binding curve and the free energy and entropy of interaction were calculated using Microcal Origin v7.0 (OriginLab, Northampton, Massachusetts, USA) according to the standard expressions: ΔG = −RTln Ka, and ΔG = ΔH–TΔS.
(§4) Figure 2 ITC data showing the binding of CVN2, mutant E41T dimer, and CVN-E41A to GlcNAc. (A) Schematic representation of monomeric CVN-E41A and dimeric CVN2 binding to GlcNAc. (B) Binding affinity of CVN2 to GlcNAc. Thermogram is shown, and the binding curve fitted to the one-set of sites model. (C) Mutant E41T dimer binds to GlcNAc. Thermogram is shown, and binding analyzed based on one-set of sites binding model. T = 298 K. Ligand in cell. […] Thermogram is shown, and binding analyzed based on one-set of sites binding model. […]
as §2

Test [5] has as its target T2, mutant E41T dimer. The test is described as above. The test is classed as binding. Particulars: SEM, n = 3; read-out: affinity Kd. The method, then: as §3, §4, §2
Test [6] addresses T4, CVN-E41A (Nostoc ellipsosporum, UniProt P81180, E41A).
T4 construct: monomeric variant; His-tag
The test is described as above. The test is classed as binding. The conditions noted are these: SEM, n = 3; read-out: affinity Kd. The method, then: as §3, §4, §2

Test [7] in a line: STD-NMR interaction with ManNAc. The test is classed as binding. Particulars: protein 100 μM, carbohydrate/CV-N = 10:1, T = 298 K. The protocol: (§5) NMR experiments were performed using a Bruker 600 MHz spectrometer, and STD spectra were obtained with −0.05 ppm as irradiation frequency and 2.94 s of saturation time. An NMR sample of CV-N, its mutant, and dimer were prepared in 100 mM PBS, pH 7.0, each added to the carbohydrate solutions in phosphate buffer for a final protein concentration of 100 μM and a ratio of carbohydrate/CV-N = 10:1.

Test [8] can be described thus: STD-NMR interaction with GlcNAc. Format: binding. Particulars: protein 100 μM, carbohydrate/CV-N = 10:1, T = 298 K. The protocol:
as §5

For test [9] the following is noted: cited from earlier work.
Test [10] can be described thus: ITC binding of CV-N, CVN2 and variants to ManNAc. Particulars: for Kd: two-sets of sites model. The method, then: as §3
The nature of test [11]: ITC binding of CVN2 to dimannosylated peptide (DM). Particulars: one-set of sites model, T=298K, Figure S2D.

Several values for one entry are separate records, joined by “and”; a condition that tells them apart may be missing. Equal entries are not always repeated. Where two headings read alike, the source gives them in different places.

On to `CC(=O)N[C@@H]1C(O)O[C@H](CO)[C@@H](O)[C@@H]1O` (stereo partly drawn) [ManNAc, N-acetylmannosamine], for which the Kd in [1] was 1400 ± 139 nM; in test [2] it was 110000 nM.

Turning to `CC(=O)N[C@H]1C(O)O[C@H](CO)[C@@H](O)[C@@H]1O` (stereo partly drawn) [GlcNAc, N-acetyl-D-glucosamine], the Kd in test [3] was 728 nM and 397 nM and 418 nM; in test [4] it was 852 ± 235 nM; in [5], 5890 ± 320 nM; in test [6], 2500 ± 2000 nM.

B1: Cyanovirin-N (protein, UniProt P81180 1-101, looked up)
Cyanovirin-N: LGKFSQTCYNSAIQGSVLTSTCERTNGGYNTSSIDLNSVIENVDGSLKWQPSNFIETCRNTQLAGSSELAAECKTRAQQFVSTKINLDDHIANIDGTLKYE
Turning to B1, the “STD-NMR interaction with ManNAc” value in test [7] is given as “hydrogen bonding”. Further, in test [8], the “STD-NMR interaction with GlcNAc” value is “interaction”. The Kd in test [9] (deeper high-affinity binding pocket, read-out: equilibrium Kd) is roughly 140 nM; in test [9] (domain A (low-affinity site), read-out: Kd), 1500 nM.

B2: CVN-E41T: CV-N binding-site variant with single-point mutation E41T, generated by alanine to threonine substitution (protein, UniProt P81180 1-101, looked up, variant E41T)
Cyanovirin-N: LGKFSQTCYNSAIQGSVLTSTCERTNGGYNTSSIDLNSVITNVDGSLKWQPSNFIETCRNTQLAGSSELAAECKTRAQQFVSTKINLDDHIANIDGTLKYE
With B2, in [7], the “STD-NMR interaction with ManNAc” value is reported as “hydrogen bonding”. Besides, the “STD-NMR interaction with GlcNAc” value in test [8] is reported as “interaction”. For the same molecule, in test [10] (one-set of sites model, Figure S3A), the “binding to ManNAc (ITC)” value is reported as “no binding”. Also, the Kd in test [10] (site 1, read-out: KD1) turned out to be 712000 nM; in test [10] (site 2, read-out: KD2) it was 17600 nM.

B3: CVN2: tandem-linked dimeric CVN2 with zero-linker length; tandem repeat of two CV-N molecules (protein, UniProt P81180 1-101, looked up)
Cyanovirin-N: LGKFSQTCYNSAIQGSVLTSTCERTNGGYNTSSIDLNSVIENVDGSLKWQPSNFIETCRNTQLAGSSELAAECKTRAQQFVSTKINLDDHIANIDGTLKYE
modifications: tandem repeat dimer, zero linker
notes: tandem-linked dimeric CVN2 with zero-linker length; tandem repeat of two CV-N molecules
Take B3: the Kd came to 3940 nM in [11] and 2.6 nM in test [10] (site 2, read-out: KD2). Moreover, in test [8], the “STD-NMR interaction with GlcNAc” value is “interaction”.
